Measurements taken from article PMC7303358, “The Lotus japonicus Ubiquitin Ligase SIE3 Interacts With the Transcription Factor SIP1 and Forms a Homodimer” (Frontiers in Plant Science, 2020).

Biological target: the molecule itself
Test: SDS-PAGE without DTT in the loading buffer and immunoblot (band of dimer size); SIE3::GFP leaf extract in native buffer, incubated with 10 μM ATP at 4°C with 0 or 100 mM DTT; stopped with SDS loading buffer without DTT; anti-GFP blot

B1: SIE3::GFP (natural protein, L. japonicus, UniProt K0BV36 1-386, looked up)
chain: MELSTIKDAFDRVTKKQKSSSSKTQEVIDQIRQEIENVLDTMQSVNNTDHVLDHKTVLNELKASLLQTAPLSQMEGTQKELNVALSKYGKLLEKNFNTDISKAYRNIDIDVHTLNQIIANHFYRQGLFEIGDHFLSVVGEPESAAVMKSPFLEMYQILEAMKNQDLEPALKWATSNSDKLAQSGSDIVLKLHSMQFVKILQNGSRDEALHYARTYLSPFASSHIADIQKLMGSLLWTGKLDSSPYHALLSPSNWDRLAEELKRQFCNLLGQSYNSPLSVTISAGVQALPPLLKFMNVMVGKKQEWQTMNQLPVPVELDSELQFHSIFVCPVSKEQATEDNPPMLMSCGHVLCKQSISKMSKNGSKLFKCPYCPFDVDAALCKQLYF
notes: SIE3 of Lotus japonicus fused to GFP; the cloning of this construct is not described; Detected with anti-GFP antibody; monomer about 68.5 kDa, upper band about 137 kDa; source: N. benthamiana leaves, total proteins extracted in native buffer
stoichiometry N: 2
